The source of these data is patent US20190233519A1 (NANJING LEGEND BIOTECH, published 2019).

For test [1], the target named is T1, biotin-labeled hCTLA-4/Fc protein (human, UniProt P16410 37-161, biotin label in the FACS competition assays (sites not given)).
T1 construct: also called CTLA-4 ECD (CTLA-4-Fc); CTLA-4-Fc (GenScript, Z03373-50)
The test can be described thus: FACS competition, biotin hCTLA-4-Fc on CHO cells expressing human B7-1.

The target in test [2] is T2, CTLA-4-His protein (Homo sapiens (Human), UniProt P16410 37-161).
T2 construct: also called CTLA-4-His fusion protein; not shown: His tag
T2 sequence (P16410 37-161 limits assumed): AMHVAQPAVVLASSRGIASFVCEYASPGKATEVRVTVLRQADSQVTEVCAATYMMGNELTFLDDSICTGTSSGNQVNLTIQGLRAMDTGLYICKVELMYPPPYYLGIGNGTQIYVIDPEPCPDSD
The test can be described thus: SPR, antibody captured by Fc, CTLA-4-His as analyte. (In general: In SPR one partner is held on a chip, and binding of the other changes the refractive index at the surface.)

For test [3], the target named is T3, human CTLA-4 expressed on CHO cells (human, UniProt P16410 37-223).
T3 construct: also called CHO cells expressing human CTLA-4; CTLA-4 expressing CHO cells
T3 sequence (P16410 37-223): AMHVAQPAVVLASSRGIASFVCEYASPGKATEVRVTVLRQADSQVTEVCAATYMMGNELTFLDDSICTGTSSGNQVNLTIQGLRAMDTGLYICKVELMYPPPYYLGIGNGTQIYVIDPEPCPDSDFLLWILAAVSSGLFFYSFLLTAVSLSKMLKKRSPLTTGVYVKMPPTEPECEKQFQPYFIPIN
The test can be described thus: FACS on CHO cells expressing human CTLA-4.
Description: (§1) Binding of HCAbs to human CTLA-4 expressed on CHO cells was determined using a fluorescence-activated cell sorting (FACS)-based assay. CHO cells expressing human CTLA-4 were dissociated from adherent culture flasks and mixed with varying concentrations of antibodies (in a 96-well plate). […] The mixture was equilibrated for 30 minutes at room temperature, then washed three times with FACS buffer (PBS containing 1% BSA). Fluorescein isothiocyanate (FITC)-conjugated anti-human κ antibody (Jackson ImmunoResearch) was then added and incubated for 15 minutes at room temperature, serving as a secondary antibody. Cells were washed again with FACS buffer and analyzed by flow cytometry. Data were analyzed with Prism (GraphPad Software, San Diego, Calif.) using non-linear regression, and EC₅₀ values were calculated.
BABP samples were prepared (starting at 1 μM, 3-fold serial dilution with 10 concentrations) as primary antibody for FACS analysis.

The target in test [4] is T4, human PD-1 expressed on CHO cells (human, UniProt Q15116 25-288).
T4 construct: whole, on cells; Also used here for PD-1 on primary T cells (MLR) and on reporter Jurkat cells in the functional rows; also called CHO cells expressing human PD-1
T4 sequence (Q15116 25-288): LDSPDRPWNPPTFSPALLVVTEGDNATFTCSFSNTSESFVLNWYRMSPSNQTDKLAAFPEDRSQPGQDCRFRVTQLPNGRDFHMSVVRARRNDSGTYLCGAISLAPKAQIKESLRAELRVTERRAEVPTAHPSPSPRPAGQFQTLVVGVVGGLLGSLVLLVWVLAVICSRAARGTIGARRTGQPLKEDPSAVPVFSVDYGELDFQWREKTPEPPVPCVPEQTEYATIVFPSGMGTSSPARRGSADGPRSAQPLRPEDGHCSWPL
Briefly: FACS on CHO cells expressing human PD-1.
Description: (§2) CHO cells expressing human PD-1 were dissociated from adherent culture flasks and mixed with varying concentrations of antibodies (both in a 96-well plate). […] Human IgG was used as a negative binding control. The mixture was equilibrated for 30 minutes at room temperature, washed three times with FACS buffer (PBS containing 1% BSA). FITC-conjugated anti-human kappa antibody (Jackson ImmunoResearch) used as secondary antibody was then added and incubated for 15 minutes at room temperature. Cells were washed again with FACS buffer and analyzed by flow cytometry. Data were analyzed with Prism (GraphPad Software, San Diego, Calif.) using non-linear regression, and EC₅₀ values were calculated.
BABP samples were prepared (starting at 1 μM, 3-fold serial dilution with 10 concentrations) as primary antibodies for FACS analysis.

The target of a further test is T5, PD-1-His protein (UniProt Q15116 25-167, limits assumed).
T5 construct: not shown: His tag
T5 sequence (Q15116 25-167 limits assumed): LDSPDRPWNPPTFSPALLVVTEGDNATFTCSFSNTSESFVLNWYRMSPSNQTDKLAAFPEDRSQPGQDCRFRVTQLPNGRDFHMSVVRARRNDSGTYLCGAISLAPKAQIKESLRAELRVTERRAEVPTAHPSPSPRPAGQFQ
The test can be described thus: SPR, antibody captured by Fc, PD-1-His as analyte.

The target of test [5] is T4, human PD-1 expressed on CHO cells. Briefly: FACS competition, biotin hPD-L1-Fc on CHO cells expressing human PD-1.
Description: The mixture was equilibrated for 30 minutes at room temperature, and washed three times with FACS buffer (PBS containing 1% BSA). PE/Cy5 Streptavidin secondary antibody was then added to the mixtures and incubated for 15 minutes at room temperature. Subsequently, the cells were washed with FACS buffer and analyzed by flow cytometry.
Test [6] addresses T2, CTLA-4-His protein. Briefly: SPR, CTLA-4-His immobilised, HCAb as analyte at 5-160 nM.
Description: Binding kinetics of anti-CTLA-4 HCAbs were determined using a Surface Plasmon Resonance (SPR) biosensor, Biacore T200 (GE Healthcare). Antigen CTLA-4-His fusion protein was immobilized on the sensor chip. […] The data of dissociation (kd) and association (kₐ) rate constants were obtained using Biacore T200 evaluation software. The apparent equilibrium dissociation constants (KD) were calculated from the ratio of kd/kₐ.
Test [7] addresses T3, human CTLA-4 expressed on CHO cells. The test can be described thus: FACS on CHO cells expressing human CTLA-4. The source holds these as a separate data set.
Description: as §1
In test [8] the target is T4, human PD-1 expressed on CHO cells. Briefly: FACS on CHO cells expressing human PD-1. The source holds these as a separate data set.
Description: as §2
Test [9] has as its target T2, CTLA-4-His protein. The test can be described thus: SPR, antibody immobilised, CTLA-4-His as analyte.

T1 sequence (P16410 37-161): as the sequence (P16410 37-161 limits assumed) above
Description for PD-1-His protein: Different concentrations of the BABP samples were prepared starting at 50 nM with 3-fold serial dilution. Each BABP sample was immobilized on the sensor chip through the Fc capture method. Antigen PD-1-His was used as the analyte. The dissociation (kd) and association (kₐ) rate constants were obtained using the BIACORE® T200 evaluation software. The apparent equilibrium dissociation constants (KD) were calculated from the ratio of kd over kₐ.

B1: BCP-31 (A34311-9GS linker-Keytruda) (bispecific antibody, human IgG4 S228P, kappa)
heavy: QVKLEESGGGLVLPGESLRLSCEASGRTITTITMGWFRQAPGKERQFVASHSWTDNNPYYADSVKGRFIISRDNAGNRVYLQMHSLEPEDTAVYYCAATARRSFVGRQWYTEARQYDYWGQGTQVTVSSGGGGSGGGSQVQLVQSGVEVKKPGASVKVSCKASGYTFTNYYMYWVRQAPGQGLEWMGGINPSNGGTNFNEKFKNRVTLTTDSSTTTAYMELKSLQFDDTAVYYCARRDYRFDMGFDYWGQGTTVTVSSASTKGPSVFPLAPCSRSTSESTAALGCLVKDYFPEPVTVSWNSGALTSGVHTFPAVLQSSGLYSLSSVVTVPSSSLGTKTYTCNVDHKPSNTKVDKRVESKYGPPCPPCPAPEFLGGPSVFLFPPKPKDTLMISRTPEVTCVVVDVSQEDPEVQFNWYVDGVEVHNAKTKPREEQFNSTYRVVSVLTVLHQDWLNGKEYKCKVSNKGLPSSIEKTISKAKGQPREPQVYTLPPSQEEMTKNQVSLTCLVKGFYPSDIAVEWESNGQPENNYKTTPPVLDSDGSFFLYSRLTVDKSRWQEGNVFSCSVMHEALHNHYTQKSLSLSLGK
light: QVKLEESGGGLVLPGESLRLSCEASGRTITTITMGWFRQAPGKERQFVASHSWTDNNPYYADSVKGRFIISRDNAGNRVYLQMHSLEPEDTAVYYCAATARRSFVGRQWYTEARQYDYWGQGTQVTVSSGGGGSGGGSEIVLTQSPATLSLSPGERATLSCRASKGVSTSGYSYLHWYQQKPGQAPRLLIYLASYLESGVPARFSGSGSGTDFTLTISSLEPEDFAVYYCQHSRDLPLTFGGGTKVEIKRTVAAPSVFIFPPSDEQLKSGTASVVCLLNNFYPREAKVQWKVDNALQSGNSQESVTEQDSKDSTYSLSSTLTLSKADYEKHKVYACEVTHQGLSSPVTKSFNRGEC
By IC50 is commonly meant the point on the concentration scale where inhibition reaches its midpoint. A higher IC50 goes with lower potency. A word on the Kd: it is the concentration at which binding is half-saturated. The low end stands for tighter binding, the high end for weaker binding. The EC50 is the concentration needed to bring the measured effect to its halfway point. Turning to B1, the half-maximal inhibitory concentration (IC50) in test [1] came out at 15.3 nM; in test [5], 5.7 nM. Also, the Kd in the test with CTLA-4-His protein [2] was determined as 4.3 nM; with PD-1-His protein, 8 nM. Besides, the figures for the EC50 in test [3] and in test [4] were 31.2 nM and 3.4 nM, respectively.

B2: BCP-36 (Keytruda-scFv-hIgG1 hinge-A34311-CH1-IgG1 Fc, A34311-CL as light chain fusion polypeptide) (bispecific antibody)
heavy: not shown
light: QVKLEESGGGLVLPGESLRLSCEASGRTITTITMGWFRQAPGKERQFVASHSWTDNNPYYADSVKGRFIISRDNAGNRVYLQMHSLEPEDTAVYYCAATARRSFVGRQWYTEARQYDYWGQGTQVTVSSRTVAAPSVFIFPPSDEQLKSGTASVVCLLNNFYPREAKVQWKVDNALQSGNSQESVTEQDSKDSTYSLSSTLTLSKADYEKHKVYACEVTHQGLSSPVTKSFNRGEC
Turning to B2, the IC50 in [1] amounted to 17.9 nM; in test [5] it was 2 nM. Further, the Kd was 6.1 nM with CTLA-4-His protein [2] and 8.3 nM with PD-1-His protein. In addition, the figures for the EC50 in test [3] and in [4] were 26.4 nM and 1.8 nM, respectively.

B3: BCP-16 (A34311-hIgG1 hinge-Keytruda) (bispecific antibody)
heavy: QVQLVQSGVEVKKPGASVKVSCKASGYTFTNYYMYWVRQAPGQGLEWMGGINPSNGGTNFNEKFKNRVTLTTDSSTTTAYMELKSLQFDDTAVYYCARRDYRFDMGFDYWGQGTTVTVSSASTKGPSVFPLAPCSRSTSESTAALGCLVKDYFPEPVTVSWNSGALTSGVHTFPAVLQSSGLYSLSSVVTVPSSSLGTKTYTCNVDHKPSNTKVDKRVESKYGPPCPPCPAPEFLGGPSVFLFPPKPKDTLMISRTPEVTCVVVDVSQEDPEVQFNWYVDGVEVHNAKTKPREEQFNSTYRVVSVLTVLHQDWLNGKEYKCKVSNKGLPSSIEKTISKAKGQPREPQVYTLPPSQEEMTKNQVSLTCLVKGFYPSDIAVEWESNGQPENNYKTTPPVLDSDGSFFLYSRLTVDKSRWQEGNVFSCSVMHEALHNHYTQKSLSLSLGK
light: QVKLEESGGGLVLPGESLRLSCEASGRTITTITMGWFRQAPGKERQFVASHSWTDNNPYYADSVKGRFIISRDNAGNRVYLQMHSLEPEDTAVYYCAATARRSFVGRQWYTEARQYDYWGQGTQVTVSSEPKSCDKTHTCPPCPEIVLTQSPATLSLSPGERATLSCRASKGVSTSGYSYLHWYQQKPGQAPRLLIYLASYLESGVPARFSGSGSGTDFTLTISSLEPEDFAVYYCQHSRDLPLTFGGGTKVEIKRTVAAPSVFIFPPSDEQLKSGTASVVCLLNNFYPREAKVQWKVDNALQSGNSQESVTEQDSKDSTYSLSSTLTLSKADYEKHKVYACEVTHQGLSSPVTKSFNRGEC
B3: the IC50 in test [1] was 8.6 nM; in [5], 8.8 nM. In addition, the Kd with CTLA-4-His protein [2] came out at 4.8 nM; in the test with PD-1-His protein, 3.9 nM. Also, the EC50 in test [3] turned out to be 26.6 nM; in test [4], 12.2 nM.

B4: BCP-17 (Keytruda-hIgG1 hinge-A34311) (bispecific antibody)
heavy: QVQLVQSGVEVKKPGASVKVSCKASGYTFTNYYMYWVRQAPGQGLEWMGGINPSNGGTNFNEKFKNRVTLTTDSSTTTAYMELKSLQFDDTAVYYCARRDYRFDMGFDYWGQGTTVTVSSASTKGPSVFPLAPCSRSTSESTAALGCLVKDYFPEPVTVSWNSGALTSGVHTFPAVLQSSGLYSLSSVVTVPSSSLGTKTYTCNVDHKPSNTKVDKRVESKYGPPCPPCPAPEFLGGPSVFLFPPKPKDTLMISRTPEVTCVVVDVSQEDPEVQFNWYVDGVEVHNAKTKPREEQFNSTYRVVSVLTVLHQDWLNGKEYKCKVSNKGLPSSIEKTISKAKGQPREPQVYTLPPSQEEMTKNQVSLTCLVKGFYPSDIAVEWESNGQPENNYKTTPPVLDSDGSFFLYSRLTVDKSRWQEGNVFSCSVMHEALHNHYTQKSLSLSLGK
light: EIVLTQSPATLSLSPGERATLSCRASKGVSTSGYSYLHWYQQKPGQAPRLLIYLASYLESGVPARFSGSGSGTDFTLTISSLEPEDFAVYYCQHSRDLPLTFGGGTKVEIKRTVAAPSVFIFPPSDEQLKSGTASVVCLLNNFYPREAKVQWKVDNALQSGNSQESVTEQDSKDSTYSLSSTLTLSKADYEKHKVYACEVTHQGLSSPVTKSFNRGECEPKSCDKTHTCPPCPQVKLEESGGGLVLPGESLRLSCEASGRTITTITMGWFRQAPGKERQFVASHSWTDNNPYYADSVKGRFIISRDNAGNRVYLQMHSLEPEDTAVYYCAATARRSFVGRQWYTEARQYDYWGQGTQVTVSS
Consider B4, for which the IC50 came to 33.3 nM in [1] and 4 nM in test [5]. The Kd with CTLA-4-His protein [2] came out at 39.3 nM; with PD-1-His protein it was 3.9 nM. Besides, the EC50 in [3] was 17.7 nM; in test [4], 2.7 nM.

B5: AS07014 HCAb (Fc fusion)
heavy: QVHLVESGGGSVQAGGSLRLSCAASGYTYSRHCLGWFRQTPGKEREAVATIDSDGSTSYADSVKGRFTISSDNAKNTLYLQMNSLKPEDTAMYYCAIGPNPRYCSGAPNTRGAEHYFGYWAQGTQVTVSS
notes: not shown: human IgG1 Fc
Regarding B5, the binding result in the test with CTLA-4-His protein [6] is listed as “binds”.

B6: AS07189 HCAb (Fc fusion)
heavy: QVQLVESGGGSVQAGGSLRLSCAASGDSPSVNYMGWFRRAPEKQREQREEVASIYPTGGTFYTDSVKGRFTISRDNAKNTLYLQMTALKPEDTAMYYCAAGKWGTDYWGQGTQVIVSS
notes: not shown: human IgG1 Fc
For the molecule B6, in the test with CTLA-4-His protein [6], the binding result is “binds”.

B7: BCP-35 (Keytruda-Fab VH-CH1-hIgG1 hinge-A34311-CH1-IgG4 Fc, Keytruda-Fab VL-CL-hIgG1 hinge-A34311-CL) (bispecific antibody)
heavy: not shown
light: EIVLTQSPATLSLSPGERATLSCRASKGVSTSGYSYLHWYQQKPGQAPRLLIYLASYLESGVPARFSGSGSGTDFTLTISSLEPEDFAVYYCQHSRDLPLTFGGGTKVEIKRTVAAPSVFIFPPSDEQLKSGTASVVCLLNNFYPREAKVQWKVDNALQSGNSQESVTEQDSKDSTYSLSSTLTLSKADYEKHKVYACEVTHQGLSSPVTKSFNRGECEPKSCDKTHTCPPCPQVKLEESGGGLVLPGESLRLSCEASGRTITTITMGWFRQAPGKERQFVASHSWTDNNPYYADSVKGRFIISRDNAGNRVYLQMHSLEPEDTAVYYCAATARRSFVGRQWYTEARQYDYWGQGTQVTVSSRTVAAPSVFIFPPSDEQLKSGTASVVCLLNNFYPREAKVQWKVDNALQSGNSQESVTEQDSKDSTYSLSSTLTLSKADYEKHKVYACEVTHQGLSSPVTKSFNRGEC
B7: the IC50 in [1] was determined as 17.5 nM; in test [5], 4.6 nM. Moreover, the values for the Kd in the test with CTLA-4-His protein [2] and with PD-1-His protein were 7.2 nM and 7.3 nM, respectively. Moreover, the values for the EC50 in test [3] and in test [4] were 20.4 nM and 3 nM, respectively.

B8: BCP-2 (BCP-K311) (Keytruda-9GS-A34311) (bispecific antibody, human IgG4 S228P, kappa)
heavy: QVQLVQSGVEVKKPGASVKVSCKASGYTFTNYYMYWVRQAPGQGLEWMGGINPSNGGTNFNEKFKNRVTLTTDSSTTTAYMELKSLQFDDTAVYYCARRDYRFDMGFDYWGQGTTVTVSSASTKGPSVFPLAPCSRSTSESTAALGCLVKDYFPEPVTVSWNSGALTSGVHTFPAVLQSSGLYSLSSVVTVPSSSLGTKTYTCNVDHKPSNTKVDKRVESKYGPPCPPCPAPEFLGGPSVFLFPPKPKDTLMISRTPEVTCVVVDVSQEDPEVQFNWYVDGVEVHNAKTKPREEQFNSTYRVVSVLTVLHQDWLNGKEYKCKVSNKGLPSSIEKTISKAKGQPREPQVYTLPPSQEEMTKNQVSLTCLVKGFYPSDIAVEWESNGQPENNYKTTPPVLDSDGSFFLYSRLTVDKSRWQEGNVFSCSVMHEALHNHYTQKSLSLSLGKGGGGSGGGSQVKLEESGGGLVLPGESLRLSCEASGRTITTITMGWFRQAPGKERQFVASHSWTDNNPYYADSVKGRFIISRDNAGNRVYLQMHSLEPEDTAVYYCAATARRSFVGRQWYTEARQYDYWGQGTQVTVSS
light: EIVLTQSPATLSLSPGERATLSCRASKGVSTSGYSYLHWYQQKPGQAPRLLIYLASYLESGVPARFSGSGSGTDFTLTISSLEPEDFAVYYCQHSRDLPLTFGGGTKVEIKRTVAAPSVFIFPPSDEQLKSGTASVVCLLNNFYPREAKVQWKVDNALQSGNSQESVTEQDSKDSTYSLSSTLTLSKADYEKHKVYACEVTHQGLSSPVTKSFNRGEC
B8: the IC50 in test [1] worked out at 11.7 nM; in test [5] it was 2.3 nM. Also, the Kd with CTLA-4-His protein [2] stood at 11 nM; with PD-1-His protein it was 5.3 nM. Further, the results for the EC50 in [3] and in [4] were 16.4 nM and 5.2 nM, respectively.

B9: BCP-73 (A34311VH11-mutated hIgG1 hinge-Keytruda) (bispecific antibody)
heavy: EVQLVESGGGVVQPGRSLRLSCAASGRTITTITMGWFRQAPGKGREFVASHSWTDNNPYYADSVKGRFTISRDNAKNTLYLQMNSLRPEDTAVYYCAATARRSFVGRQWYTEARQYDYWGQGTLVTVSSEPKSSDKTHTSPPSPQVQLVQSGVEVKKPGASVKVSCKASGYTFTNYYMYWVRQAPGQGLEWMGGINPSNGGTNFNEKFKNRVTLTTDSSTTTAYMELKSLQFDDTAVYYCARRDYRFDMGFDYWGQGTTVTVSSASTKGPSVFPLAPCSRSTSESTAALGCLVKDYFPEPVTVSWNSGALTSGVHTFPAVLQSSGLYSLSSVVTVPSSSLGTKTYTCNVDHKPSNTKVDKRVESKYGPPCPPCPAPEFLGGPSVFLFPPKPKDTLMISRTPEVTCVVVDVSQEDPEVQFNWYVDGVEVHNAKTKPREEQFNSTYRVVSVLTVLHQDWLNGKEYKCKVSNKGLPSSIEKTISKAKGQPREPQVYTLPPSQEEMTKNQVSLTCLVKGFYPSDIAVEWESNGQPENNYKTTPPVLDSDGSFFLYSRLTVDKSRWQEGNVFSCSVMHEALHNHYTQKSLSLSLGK
light: EIVLTQSPATLSLSPGERATLSCRASKGVSTSGYSYLHWYQQKPGQAPRLLIYLASYLESGVPARFSGSGSGTDFTLTISSLEPEDFAVYYCQHSRDLPLTFGGGTKVEIKRTVAAPSVFIFPPSDEQLKSGTASVVCLLNNFYPREAKVQWKVDNALQSGNSQESVTEQDSKDSTYSLSSTLTLSKADYEKHKVYACEVTHQGLSSPVTKSFNRGEC
With B9, the binding result (in [7]; in test [8]; with CTLA-4-His protein [9]) was “binds” each time.

B10: BCP-75 (AS07189TKDVH11-mutated hIgG1 hinge-Keytruda) (bispecific antibody)
heavy: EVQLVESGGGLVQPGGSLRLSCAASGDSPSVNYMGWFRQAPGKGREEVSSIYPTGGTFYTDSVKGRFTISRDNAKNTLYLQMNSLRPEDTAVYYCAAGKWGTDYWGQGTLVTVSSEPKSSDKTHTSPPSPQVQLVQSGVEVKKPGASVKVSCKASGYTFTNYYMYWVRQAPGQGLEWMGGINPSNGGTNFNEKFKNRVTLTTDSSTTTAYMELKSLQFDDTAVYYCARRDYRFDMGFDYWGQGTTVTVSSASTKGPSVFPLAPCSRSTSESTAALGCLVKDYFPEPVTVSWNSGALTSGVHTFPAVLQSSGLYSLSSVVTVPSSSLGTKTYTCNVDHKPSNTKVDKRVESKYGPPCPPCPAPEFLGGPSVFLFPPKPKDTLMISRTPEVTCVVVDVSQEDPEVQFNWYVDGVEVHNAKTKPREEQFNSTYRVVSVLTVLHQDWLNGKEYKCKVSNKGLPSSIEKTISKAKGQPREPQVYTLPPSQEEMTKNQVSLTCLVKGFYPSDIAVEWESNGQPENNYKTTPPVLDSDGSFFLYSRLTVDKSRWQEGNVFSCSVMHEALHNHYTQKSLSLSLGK
light: EIVLTQSPATLSLSPGERATLSCRASKGVSTSGYSYLHWYQQKPGQAPRLLIYLASYLESGVPARFSGSGSGTDFTLTISSLEPEDFAVYYCQHSRDLPLTFGGGTKVEIKRTVAAPSVFIFPPSDEQLKSGTASVVCLLNNFYPREAKVQWKVDNALQSGNSQESVTEQDSKDSTYSLSSTLTLSKADYEKHKVYACEVTHQGLSSPVTKSFNRGEC
Regarding B10, the binding result (in test [7]; in test [8]; in the test with CTLA-4-His protein [9]) was “binds” in each case.

B11: BCP-74 (AS07014VH11-mutated hIgG1 hinge-Keytruda) (bispecific antibody)
heavy: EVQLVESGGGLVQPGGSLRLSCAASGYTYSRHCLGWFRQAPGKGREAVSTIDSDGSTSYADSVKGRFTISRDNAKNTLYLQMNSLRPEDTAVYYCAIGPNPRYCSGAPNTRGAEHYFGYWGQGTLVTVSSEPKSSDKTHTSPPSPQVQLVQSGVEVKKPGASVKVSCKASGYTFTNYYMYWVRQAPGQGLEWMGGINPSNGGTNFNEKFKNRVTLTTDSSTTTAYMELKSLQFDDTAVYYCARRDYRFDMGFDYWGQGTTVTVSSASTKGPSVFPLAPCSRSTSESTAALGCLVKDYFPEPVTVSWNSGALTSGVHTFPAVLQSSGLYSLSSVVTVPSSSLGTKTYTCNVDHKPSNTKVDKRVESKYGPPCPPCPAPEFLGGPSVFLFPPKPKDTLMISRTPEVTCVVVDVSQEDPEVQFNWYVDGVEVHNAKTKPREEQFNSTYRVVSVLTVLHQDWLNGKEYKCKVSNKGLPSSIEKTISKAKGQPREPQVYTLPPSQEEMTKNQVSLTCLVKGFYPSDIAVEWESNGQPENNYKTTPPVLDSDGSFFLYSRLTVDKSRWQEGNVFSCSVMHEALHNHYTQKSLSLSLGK
light: EIVLTQSPATLSLSPGERATLSCRASKGVSTSGYSYLHWYQQKPGQAPRLLIYLASYLESGVPARFSGSGSGTDFTLTISSLEPEDFAVYYCQHSRDLPLTFGGGTKVEIKRTVAAPSVFIFPPSDEQLKSGTASVVCLLNNFYPREAKVQWKVDNALQSGNSQESVTEQDSKDSTYSLSSTLTLSKADYEKHKVYACEVTHQGLSSPVTKSFNRGEC
Regarding B11, the binding result (in [7]; in test [8]; with CTLA-4-His protein [9]) was “binds” in each case.

B12: BCP-32 (A34311-9GS linker-A34311-9GS linker-Keytruda) (bispecific antibody, human IgG4 S228P, kappa)
heavy: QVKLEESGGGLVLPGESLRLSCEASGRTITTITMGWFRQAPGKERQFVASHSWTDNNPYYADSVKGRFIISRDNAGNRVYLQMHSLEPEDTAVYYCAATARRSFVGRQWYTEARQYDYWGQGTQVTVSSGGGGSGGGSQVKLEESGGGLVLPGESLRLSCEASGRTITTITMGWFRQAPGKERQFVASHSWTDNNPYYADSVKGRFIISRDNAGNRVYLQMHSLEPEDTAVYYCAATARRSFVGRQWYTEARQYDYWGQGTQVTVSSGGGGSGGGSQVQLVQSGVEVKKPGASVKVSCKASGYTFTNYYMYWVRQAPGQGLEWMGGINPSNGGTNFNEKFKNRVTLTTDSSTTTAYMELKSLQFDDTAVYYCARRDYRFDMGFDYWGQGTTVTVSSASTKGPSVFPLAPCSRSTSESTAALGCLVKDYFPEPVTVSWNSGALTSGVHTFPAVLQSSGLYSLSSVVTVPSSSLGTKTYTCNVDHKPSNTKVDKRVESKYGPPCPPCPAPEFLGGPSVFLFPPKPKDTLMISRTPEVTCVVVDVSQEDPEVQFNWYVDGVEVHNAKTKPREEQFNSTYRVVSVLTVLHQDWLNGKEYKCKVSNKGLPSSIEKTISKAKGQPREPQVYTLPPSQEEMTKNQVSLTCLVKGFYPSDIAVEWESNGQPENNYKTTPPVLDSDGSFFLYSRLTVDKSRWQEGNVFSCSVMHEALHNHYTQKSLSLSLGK
light: EIVLTQSPATLSLSPGERATLSCRASKGVSTSGYSYLHWYQQKPGQAPRLLIYLASYLESGVPARFSGSGSGTDFTLTISSLEPEDFAVYYCQHSRDLPLTFGGGTKVEIKRTVAAPSVFIFPPSDEQLKSGTASVVCLLNNFYPREAKVQWKVDNALQSGNSQESVTEQDSKDSTYSLSSTLTLSKADYEKHKVYACEVTHQGLSSPVTKSFNRGEC
Consider B12, for which the IC50 was determined as 14.6 nM in [1] and 4.3 nM in test [5]. Besides, the figures for the Kd with CTLA-4-His protein [2] and with PD-1-His protein were 4.1 nM and 7.5 nM, respectively. The results for the EC50 in [3] and in test [4] were 71.7 nM and 8.1 nM, respectively.

B13: BCP-33 (Keytruda-Fab VH-CH1-hIgG1 hinge-A34311-IgG1 Fc) (bispecific antibody)
heavy: not shown
light: EIVLTQSPATLSLSPGERATLSCRASKGVSTSGYSYLHWYQQKPGQAPRLLIYLASYLESGVPARFSGSGSGTDFTLTISSLEPEDFAVYYCQHSRDLPLTFGGGTKVEIKRTVAAPSVFIFPPSDEQLKSGTASVVCLLNNFYPREAKVQWKVDNALQSGNSQESVTEQDSKDSTYSLSSTLTLSKADYEKHKVYACEVTHQGLSSPVTKSFNRGEC
In the case of B13, the IC50 in [1] came to 26.3 nM; in test [5] it was 2 nM. For the same molecule, the Kd in the test with CTLA-4-His protein [2] turned out to be 9.2 nM; with PD-1-His protein, 8.1 nM. Besides, the EC50 in test [3] came to 48 nM; in test [4] it was 1.5 nM.
